Legend:
Experiment in all cases: cell-based or functional assay
[1] = target: SARS-CoV-2 spike (S) protein, Omicron sublineage XBB (SARS-CoV-2)
[2] = target: SARS-CoV-2 spike (S) protein, Omicron sublineage BA.4/5 (SARS-CoV-2)
[3] = target: SARS-CoV-2 spike (S) protein, Omicron sublineage BQ.1 (SARS-CoV-2)
[4] = target: SARS-CoV-2 spike (S) protein, Omicron sublineage BA.2.75.2 (SARS-CoV-2)
[5] = target: SARS-CoV-2 spike (S) protein, Omicron sublineage BQ.1.1 (SARS-CoV-2)
[6] = target: SARS-CoV-2 Omicron BQ.1.1 spike protein (SARS-CoV-2)
[7] = target: SARS-CoV-2 Omicron BA.4/5 spike protein (SARS-CoV-2)
[8] = target: SARS-CoV-2 Omicron BQ.1 spike protein (SARS-CoV-2)
[9] = target: SARS-CoV-2 Omicron XBB spike protein (SARS-CoV-2)
[10] = target: SARS-CoV-2 Omicron BA.2.75.2 spike protein (SARS-CoV-2)
[11] = target: SARS-CoV-2 spike (S) protein, Omicron sublineage XBB1.5 (SARS-CoV-2)
[12] = target: SARS-CoV-2 spike (S) protein, Omicron sublineage BF.7 (SARS-CoV-2)

Binder	IC50, pseudovirus neutralization [1]	IC80, pseudovirus neutralization [1]	IC50, pseudovirus neutralization [2]	IC80, pseudovirus neutralization [2]	IC50, pseudovirus neutralization [3]	IC80, pseudovirus neutralization [3]	IC50, pseudovirus neutralization [4]	IC80, pseudovirus neutralization [4]	IC50, pseudovirus neutralization [5]	IC80, pseudovirus neutralization [5]	IC50, pseudovirus neutralization [6]	IC80, pseudovirus neutralization [6]	IC50, pseudovirus neutralization [7]	IC80, pseudovirus neutralization [7]	IC50, pseudovirus neutralization [8]	IC80, pseudovirus neutralization [8]	IC50, pseudovirus neutralization [9]	IC80, pseudovirus neutralization [9]	IC50, pseudovirus neutralization [10]	IC80, pseudovirus neutralization [10]	other results
F770-E8 (antibody, V domains shown) VH: QVTLRESGPALVKPTQTLTLTCTFSGFSLSTRGVCVSWIRQPPGKALEWLAFIDWDDDKYYNTSLKTRLTISKDTSKNQVVLTMTNVHPVDTATYYCARISSHHGSSWCTTFDYWGQGALVTVSA VL: DTVMTQSPLSLPVTPGEPASISCRSSQSLLNSNGYNYLDWYVQKPGQSPQLLIYLGSNRASGVPDRFSGSGSGTDFTLKISRVEAEDVGVYYCMQPLQTPLFTFGPGTKVEIK	61.5 ng/mL	705 ng/mL	0.13 ng/mL	0.49 ng/mL	124 ng/mL	5190 ng/mL	1.72 ng/mL	5.9 ng/mL	496 ng/mL	1800 ng/mL	–	–	–	–	–	–	–	–	–	–	–
MX1045 (bispecific antibody) chain 1: EIVLTQSPGTLSLSPGETATLSCRASQSFSSDLAWYQQKPGQAPRLLIYGASSRATGIPDRFSGSGSGTDFTLTISRLEPADFAVYYCQQYGSSPPVTFGGGTKVEIKGGSSGQTVVTQEPSFSVSPGGTVTLTCGLSSGSVSTAYFPSWYQQTPGQAPRTLIYGTNTRSSGVPDRFSGSILGNKAALTITGAQADDESDYYCVLYMGRGIVVFGGGTKLTVLGGGGSGGSGSGGGGSASGSGQVQLVESGGGVVQPGRSLRLSCAASGFTLSSYGMHWVRQAPGKGLEWVAVISYDGSNKYYVDSVKGRFTISRDNSKNTLYLQMNSLRAEDTAVYYCRWAYWELLPDYYYGMDVWGQGTTVTVSSGGSSGEVQLVESGGGLIQPGGSLRLSCAASGVIVSYNYMNWVRQAPGKGLEWVSVIYSGGSTFYADSVRGRFTISRDNSKNTLYLQMNSLRAEDTAVYYCARDLGPAGAFDIWGLGTMVTVSSASGGSGDKTHTCPPCPAPELLGGPSVFLFPPKPKDTLMISRTPEVTCVVVDVSHEDPEVKFNWYVDGVEVHNAKTKPREEQYNSYVVSVLTVLHQDWLNGKEYKCKVSNKALPAPIEKTISKAKGQPREPQVYTLPPCRDELTKNQVSLWCLVKGFYPSDIAVEWESNGQPENNYKTTPPVLDSDGSFFKKLTVDKSRWQQGNVFSCSVLHEALHSHYTQKSLSLSPG chain 2: QTVVTQEPSFSVSPGGTVTLTCGLSSGSVSTAYFPSWYQQTPGQAPRTLIYGTNTRSSGVPDRFSGSILGNKAALTITGAQADDESDYYCVLYMGRGIVVFGGGTKLTVLGGSSGEIVLTQSPGTLSLSPGETATLSCRASQSFSSDLAWYQQKPGQAPRLLIYGASSRATGIPDRFSGSGSGTDFTLTISRLEPADFAVYYCQQYGSSPPVTFGGGTKVEIKGGGGSGGSGSGGGGSASGSGEVQLVESGGGLIQPGGSLRLSCAASGVIVSYNYMNWVRQAPGKGLEWVSVIYSGGSTFYADSVRGRFTISRDNSKNTLYLQMNSLRAEDTAVYYCARDLGPAGAFDIWGLGTMVTVSSGGSSGQVQLVESGGGVVQPGRSLRLSCAASGFTLSSYGMHWVRQAPGKGLEWVAVISYDGSNKYYVDSVKGRFTISRDNSKNTLYLQMNSLRAEDTAVYYCRWAYWELLPDYYYGMDVWGQGTTVTVSSASGGSGDKTHTCPPCPAPELLGGPSVFLFPPKPKDTLMISRTPEVTCVVVDVSHEDPEVKFNWYVDGVEVHNAKTKPREEQYNSYVVSVLTVLHQDWLNGKEYKCKVSNKALPAPIEKTISKAKGQPREPQVCTLPPSRDELTKNQVSLSCAVKGFYPSDIAVEWESNGQPENNYKTTPPVLDSDGSFFLVSKLTVDKSRWQQGNVFSCSVLHEALHSHYTQKSLSLSPG	–	–	–	–	–	–	–	–	–	–	1.5 ng/mL	8.57 ng/mL	2.68 ng/mL	6.06 ng/mL	6.02 ng/mL	22.3 ng/mL	6.09 ng/mL	18 ng/mL	2.91 ng/mL	5.43 ng/mL	–
MX1046 (bispecific antibody) chain 1: EIVLTQSPGTLSLSPGETATLSCRASQSFSSDLAWYQQKPGQAPRLLIYGASSRATGIPDRFSGSGSGTDFTLTISRLEPADFAVYYCQQYGSSPPVTFGGGTKVEIKGGSSGDTVMTQSPLSLPVTPGEPASISCRSSQSLLNSNGYNYLDWYVQKPGQSPQLLIYLGSNRASGVPDRFSGSGSGTDFTLKISRVEAEDVGVYYCMQPLQTPLFTFGPGTKVEIKGGGGSGGSGSGGGGSASGSGQVTLRESGPALVKPTQTLTLTCTFSGFSLSTRGVCVSWIRQPPGKALEWLAFIDWDDDKYYNTSLKTRLTISKDTSKNQVVLTMTNVHPVDTATYYCARISSHHGSSWCTTFDYWGQGALVTVSAGGSSGEVQLVESGGGLIQPGGSLRLSCAASGVIVSYNYMNWVRQAPGKGLEWVSVIYSGGSTFYADSVRGRFTISRDNSKNTLYLQMNSLRAEDTAVYYCARDLGPAGAFDIWGLGTMVTVSSASGGSGDKTHTCPPCPAPELLGGPSVFLFPPKPKDTLMISRTPEVTCVVVDVSHEDPEVKFNWYVDGVEVHNAKTKPREEQYNSYVVSVLTVLHQDWLNGKEYKCKVSNKALPAPIEKTISKAKGQPREPQVYTLPPCRDELTKNQVSLWCLVKGFYPSDIAVEWESNGQPENNYKTTPPVLDSDGSFFKKLTVDKSRWQQGNVFSCSVLHEALHSHYTQKSLSLSPG chain 2: DTVMTQSPLSLPVTPGEPASISCRSSQSLLNSNGYNYLDWYVQKPGQSPQLLIYLGSNRASGVPDRFSGSGSGTDFTLKISRVEAEDVGVYYCMQPLQTPLFTFGPGTKVEIKGGSSGEIVLTQSPGTLSLSPGETATLSCRASQSFSSDLAWYQQKPGQAPRLLIYGASSRATGIPDRFSGSGSGTDFTLTISRLEPADFAVYYCQQYGSSPPVTFGGGTKVEIKGGGGSGGSGSGGGGSASGSGEVQLVESGGGLIQPGGSLRLSCAASGVIVSYNYMNWVRQAPGKGLEWVSVIYSGGSTFYADSVRGRFTISRDNSKNTLYLQMNSLRAEDTAVYYCARDLGPAGAFDIWGLGTMVTVSSGGSSGQVTLRESGPALVKPTQTLTLTCTFSGFSLSTRGVCVSWIRQPPGKALEWLAFIDWDDDKYYNTSLKTRLTISKDTSKNQVVLTMTNVHPVDTATYYCARISSHHGSSWCTTFDYWGQGALVTVSAASGGSGDKTHTCPPCPAPELLGGPSVFLFPPKPKDTLMISRTPEVTCVVVDVSHEDPEVKFNWYVDGVEVHNAKTKPREEQYNSYVVSVLTVLHQDWLNGKEYKCKVSNKALPAPIEKTISKAKGQPREPQVCTLPPSRDELTKNQVSLSCAVKGFYPSDIAVEWESNGQPENNYKTTPPVLDSDGSFFLVSKLTVDKSRWQQGNVFSCSVLHEALHSHYTQKSLSLSPG	–	–	–	–	–	–	–	–	–	–	1.23 ng/mL	3.97 ng/mL	0.9 ng/mL	1.56 ng/mL	1.66 ng/mL	4.08 ng/mL	1.26 ng/mL	2.88 ng/mL	0.36 ng/mL	1.29 ng/mL	–
A46 + E12 + B8 (protein) VH 1: QVQLVESGGGVVQPGRSLRLSCAASGFTLSSYGMHWVRQAPGKGLEWVAVISYDGSNKYYVDSVKGRFTISRDNSKNTLYLQMNSLRAEDTAVYYCRWAYWELLPDYYYGMDVWGQGTTVTVSS VL 1: QTVVTQEPSFSVSPGGTVTLTCGLSSGSVSTAYFPSWYQQTPGQAPRTLIYGTNTRSSGVPDRFSGSILGNKAALTITGAQADDESDYYCVLYMGRGIVVFGGGTKLTVL VH 2: EVQLVESGGGLIQPGGSLRLSCAASGVIVSYNYMNWVRQAPGKGLEWVSVIYSGGSTFYADSVRGRFTISRDNSKNTLYLQMNSLRAEDTAVYYCARDLGPAGAFDIWGLGTMVTVSS VL 2: EIVLTQSPGTLSLSPGETATLSCRASQSFSSDLAWYQQKPGQAPRLLIYGASSRATGIPDRFSGSGSGTDFTLTISRLEPADFAVYYCQQYGSSPPVTFGGGTKVEIK VH 3: EVQLVESGGALIQPGGSLRLSCAASGIIVSANYMSWVRQAPGKGLEWVSVIYSGGSTFYADSVKGRFTISRDNSKNTLYLEMNSLRAEDTAVYYCARDAPILGVSDWGQGTLVTVSS VL 3: EIVMTQSPAILSVSPGERATLSCRASQSVAINLAWYQQKPGQAPRLLIYAASSRATGIPGRFSGSGSETNFTLTISSLQSGDFAVYYCQQYITWPPSYTFGQGTKLEIK	–	–	–	–	–	–	–	–	–	–	–	–	–	–	–	–	–	–	–	–	IC50, pseudovirus neutralization [11]: 12 nM; IC80, pseudovirus neutralization [11]: 33 nM; IC50, pseudovirus neutralization [12]: 12.9 nM; IC80, pseudovirus neutralization [12]: 33.8 nM
F769-E12 (antibody, V domains shown) VH: EVQLVESGGGLIQPGGSLRLSCAASGVIVSYNYMNWVRQAPGKGLEWVSVIYSGGSTFYADSVRGRFTISRDNSKNTLYLQMNSLRAEDTAVYYCARDLGPAGAFDIWGLGTMVTVSS VL: EIVLTQSPGTLSLSPGETATLSCRASQSFSSDLAWYQQKPGQAPRLLIYGASSRATGIPDRFSGSGSGTDFTLTISRLEPADFAVYYCQQYGSSPPVTFGGGTKVEIK	12.7 ng/mL	31.1 ng/mL	4.62 ng/mL	9.21 ng/mL	11.9 ng/mL	40.9 ng/mL	6.99 ng/mL	40.1 ng/mL	5.29 ng/mL	17.4 ng/mL	–	–	–	–	–	–	–	–	–	–	–
E76-B8 (antibody, V domains shown) VH: EVQLVESGGALIQPGGSLRLSCAASGIIVSANYMSWVRQAPGKGLEWVSVIYSGGSTFYADSVKGRFTISRDNSKNTLYLEMNSLRAEDTAVYYCARDAPILGVSDWGQGTLVTVSS VL: EIVMTQSPAILSVSPGERATLSCRASQSVAINLAWYQQKPGQAPRLLIYAASSRATGIPGRFSGSGSETNFTLTISSLQSGDFAVYYCQQYITWPPSYTFGQGTKLEIK	13.4 ng/mL	47.2 ng/mL	6.97 ng/mL	14.8 ng/mL	15 ng/mL	49.6 ng/mL	12.2 ng/mL	27.4 ng/mL	4.57 ng/mL	21.7 ng/mL	–	–	–	–	–	–	–	–	–	–	–
